We go through 2 molecules from US20230399417A1 (Genentech, published 2023).

No end group written: not given here.

Assay [1] addresses T1, mouse IL-1β peptide 21LFFEVD26 (mouse).
T1 construct: Liberated C-terminus of the noncanonical cleavage site, with free C-terminal Asp
T1 peptide: LFFEVD-OH
The assay can be described thus: X-ray co-crystal structure.

In assay [2] the target is T2, IL-18 peptide 30GDLESD35.
T2 construct: Liberated C-terminus of IL-18, with free C-terminal Asp
T2 peptide: GDLESD
The assay can be described thus: X-ray co-crystal structure.

B1: CJ11 Fab (Fab, V domains shown)
VH: QSVEESGGGLVTPGTPLTLTCTVSGIDLSRYAMSWVRQAPGKGLEWIGIFGSLGGIFYASWAKGRFTISKTSPTTVDLKITSPTTEDTATYFCARMPYTTDRDFWGPGTLVTVSS
VL: DIVMTQTPSSTSAAVGGTVTITCQASQSVANNNYLKWYQQKRGQPPKQLIYSVSTLASGVPSRFKGSGSGTQFTLTISDLECDDAATYYCSGYFNNNIGAFGGGTKLEIK
notes: also called its Fab
Consider B1, for which the binding result in assay [1] was “binds”.

B2: CJ11 Fab modified by reductive lysine methylation (Fab, V domains shown)
VH: QSVEESGGGLVTPGTPLTLTCTVSGIDLSRYAMSWVRQAPGKGLEWIGIFGSLGGIFYASWAKGRFTISKTSPTTVDLKITSPTTEDTATYFCARMPYTTDRDFWGPGTLVTVSS
VL: DIVMTQTPSSTSAAVGGTVTITCQASQSVANNNYLKWYQQKRGQPPKQLIYSVSTLASGVPSRFKGSGSGTQFTLTISDLECDDAATYYCSGYFNNNIGAFGGGTKLEIK
modifications: lysines modified by reductive methylation
Regarding B2, in assay [2], the binding result was “binds”.
